The nanobody polyreactivity screen of Harvey et al. (2022)

Assay: yeast display, Sf9 membrane polyspecificity reagent, FACS + sequencing; frameworks hold sequencing errors
Method in brief: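 Sorting gates, low and high (top ~1%), were placed on anti-HA fluorescence to track expression and on streptavidin fluorescence to track reagent binding. A clone's polyreactivity label is taken from the gate it came out of. The reagent was 10% biotinylated, detergent-solubilized Sf9 membrane, applied for 1 hour at 4 °C to galactose-induced yeast display cells.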

| Sequence | polyreactivity (PSR sort gate) |
| --- | --- |
| QVQLVESGGGLVQAGGSLRLSCAASGRTFYYYAMGWYRQAPGKERELVAAISSNGGSTYADSVKGRYTISRDNAKNTVYLQMNSLKPEDTAVYYCNARFTYRWGMGYWGHGTQVTVSS | high polyreactivity |
| QVQLVESGGGLVQAGGSLRLSCAASGSTFSTYAMGWYRQAPGKERELVARITRGGSTNYADSVKGRFTISRDNAKNTVYLQMNSLKPEDTAVYYCAAGIRSGRKYDYWGQGTQVTVSS | low polyreactivity |
| QVQLVESGGGLVQAGGSLRLSCAASGFTFDSNAMGRYRQAPGKERELVAANSTGGSTYYADSVKGRFTISRDNAKNTVYLQMNSLKPEDTAVYYCARDPPYPDTWYGYWGQGTQVTVSS | low polyreactivity |
| QVQLVESGGGLVQAGGSLRLSCAASGRTFRANAMGWYRTAPGKEMELVAAISQRGGNTYYADSVKGRFTISRDNAKYTVYLQMNSLKPEDTAVYYCAADITTYRRGRYEYEFWGQGTQVTVSS | high polyreactivity |
| QVQLVESRGGLVQAGGSLRLSCAASGLTFKWYAMGWYRQAHGKERELVAAISRDGSTYYADSVKGRFTISRDNAKNTVYLQMNSLKPEDTAVYYCAAEPRSRRVLYDYWGQGTQVTVSS | high polyreactivity |
| QVQLVESGGCLVQAGGSLRLSCAASGRIFYGNTMGCYRQAPGKESELVATITRSGGSTYYADSVKGRFTISRDNAKNTVYLQMNNLKPEDTAVYYCAVGYWRLFPYGYWGQGTQVTVSS | high polyreactivity |
| QVQLVESGGGLVQAGGSLRLSCAASGSTFSFYDMGWYRQAPGKERELVAAITGSGGTTYYADSVKGRFTISRDNAKNTVYLQMNSLKPEDTAVYYCAADSLESYPDYEYDYWGQGTQVTVSS | low polyreactivity |
| QVQLVESGGGLVQAGGSRRLSCAASGFTFHYYAMGWYRQAPGKERELVAVITSGGSTTYADSVKGRFTISRDNAKNTVYLQMNSLKPEDTAVYYCATDNPFLWWFRPDQHGMGYWGQGTQVTVSS | low polyreactivity |
| QVQLVESGGGLVQAGGSLRLICAASGFIFWFYAMGWYRQAPGKERELVASISASGGSTNYADSVKGRFTISRDKAKNTVYLQMNSLKPEDTAVYYCAARKRYQRGYWGQGTQVTVSS | high polyreactivity |
| QVQLVESGGGLVQAGGSLRLRCAASGRTFGEYTMGWYRQAPGKERELVAAISSAGRTNYADSVKGRFTISRDNAKNTVYLQMNSLKPEDSGVYYCAADWTDDVRGYDYWGQGTQVTVSS | low polyreactivity |
| QVQLVESGGGLVQAGGSLRLSCAASGRTFVGYVMGWYRQAPGKERDLVAAITSRGGRTYYADSLKGRFTISRDNAKNTVYLQMNSLNPEDTGVYYCYAAHGSRAFFGGYDYWGQGTEVTVSS | high polyreactivity |
| QVQLVESGGGLVQAGGSLRLSCAASGRIFVKYAMGWYRQAPGKERELVAAISKSGGSTYYADSVKGRFTISRDNAKNTVYLQMNSLKPEDTAVYYCATRSREQYSVSYRLDYWGQGTQVTVSS | low polyreactivity |
| QVQLVESGGGLVQAGGSLRLSCAASGSTFRRNAMGWYRQAPGKERELVAAITWRGTSTYYADSVKGRFTISRDNAKNTVYLQMNSLKPEDTAVYYCAADRFVRYWGQGTQVTVSS | high polyreactivity |
| QVQLVESGGGLVQAGGSLRLSCAASGRTFSSTAMGWYRPAPGKERELVATITYSGGSTYYADSVKGRFTISRDNAKNTVYLQMISLKPEDCAVYYGAVRVSTYMTKYYYWGQGTQVTVSS | low polyreactivity |
| QVQLVESGGGLVQAGGSLRLSCAASGSIIGFNGMGWYRQAPGKERELVSAISSTGGSTYYADSVKGRFTISRDNAKNTVYLQMNSLKPEDTAVYICNTDYSKTIGDGYAGFDYWGQGTQGTVSS | low polyreactivity |
| QVQLVESGGGLVQAGGSLRLSCAASGRTFIGYAMGWYRQAPGKERELVAAISPGGSTKYADSVKGRFTISRDNAKNTVYLQMNSLKPEDTAVYYCAASYSGRQDRYPHYDYWGQGTQVTVSS | low polyreactivity |
| QVQLVESGGGLVQAGGSLRLSCAASGFTFKSYAMGWYRQAPGKERELVASISRRGGSTYYADSVKGRFTISRDNAKNTVYLQMNSLKPEDTAVYYCAADKRPPYILDYWGLGTQVTVSS | high polyreactivity |
| QVQLVESGGGLVQAGGSLRLSCAASGSIFKNYAMGWYRQAPGKERELVATISSGDSTYYADSVKGRFTISRDNAKNTVYLQMNSLKPEDTAVYYCNTTEHNYVSSFEYGYWGQGTHVTVSS | low polyreactivity |
| QVQLVESGGGLVQAGGSLRLSCAASGRTFPAYTMGWYRQAPGKERELVAAINWSGGSTYYADSVKGRFTISRDNAKNTVYLQMNSLKPEDTAVYYCARTSRYYGFRSYGTLDYWGLGTQVTVSS | high polyreactivity |
| QVQLVESGGGLDQAGGSLRLSCAASGRISVFYAMGWYRQAPGKERELVAAISRGSSTYYADSVKGLFTISRDNAKNTVYLQMNSLKPEETAVYYCNRARYYLYDGGYWGQGTQVTVSS | high polyreactivity |
| QVQLVESGGGLVQAGGSLRLSCAASGRISDFYAMGWNRQAPGKEREFVAAMSWSGGSTSYADSVKGRFTISRDNAKNTVYLQMNSLKPEDTSVYYCSAKGSRGNSAWYGYWGQGTQVTVSS | high polyreactivity |
| QVQLVESGGGLVQAGGSLRLSCAASGITFRGYAMGWYRQAPGKERELVAAISSGGRTNYADSVKGRFTISRDNAKNTVYLQMNSLKPEDTAVYYCAARYRREKAGYRWDIFYWGQGTQVTVSS | high polyreactivity |

| Sequence | polyreactivity (PSR sort gate) |
| --- | --- |
| QVQLVESGGGLVQAGGSLRLSCAASGFIFRYYAMGWYRQAPGTERELVAAISQSGGSTDYADSVKGRFTISRDTAKNTVYLQMNSLKPVDTAVYYCATRTPYTKRDYWGQGTQVTVSS | high polyreactivity |
| QVQLVESGGGLVQAGGSLRLSCAASGRTLIWYTMGWYRQAPGKERELVAAITSGGSTYYADSVKGRFTISRDNAKNTVYLRMNSLKPEDTAVYYCAAVYPAAPRAYGYWGQGTQVTVSS | low polyreactivity |
| QVQHVESGGGLVQAGGSLRLSCAASGTTFYFYAMGWYRQAPGKERELVAAITYSGGSTYYADSVKGRFTISRDNAKNTVYLQMNSLKPEDTAVYYCAAQWRRHSTRSRYYYWGQGTQVTVSS | high polyreactivity |
| HVHQQGSGGGLAQARDSLRLSCAASGTNFSEYNNGLVSQGAGQRTRTCCRYWCWGNTYYADSAKGRLTSSRDNAKYNVDLQKNSLKPEDTAVYYCAFILPYPSRHIDRGQGTQVTVSS | high polyreactivity |
| QVQLVESVGGLVQAGGSLRLTCAASGIILHDNTMGWYRQAPGKEREVVAAITSDGSTNYADSVKGRFTISRDNAKNTVYLQMNSLKPEDTAVYYCNTDDGPYTEFDYWGQGTQVTVSS | low polyreactivity |
| QVQLVESGGGLVQAGGSLRLSCAASGFTFSRYTMGWYRQAPGKERELVAAITSSGGSTYYADSVKGRFTISRDNAKNTVYLQMNSLKPEDTAVYYCAARRRESDQRGYCGQGTQVTVSS | high polyreactivity |
| KVQLVESGGGLVQAGGSLRLSCAASGFTFLRYGMGGYRQAPGKERELVASITSGGGTNYADSVKGRFTISRDNAKNTVYLQLNSLKPEDSAVYYCNAVFFYHGTKPAFISHDYWGQGTQVTVSS | low polyreactivity |
| QVQHVESGGGLVQAGGSLRLSCAASGSTFAINAMGGYRQAPGKERELVAAISSSGSTNYADSVKGRFTISRDNAKNTVYLQMNSLKPEDTAVSYCAADRVWGTPQAYVPSQFDYWGQGTQVTVSS | low polyreactivity |
| QVQLVESGGGLVQAGGSLRLSCAASGRIFVRNAMGWYRQAPGKERELVATITSIGGRTYYADSVKGRFTISRDNAKNTVYLQMNSLKPEDTAVYYCAAYNTQSYPAYLRYDYWGQGTQVTVSS | low polyreactivity |
| QVQLVESGGGLVQAGGSLRLSCAASGRIFYRYAMGWYRQAPGKERELVATISSGGSTNYADSVKGRFTISRDNAKNTVYLQMNSLKPEDTAVYYCARQSLRYSYVSRDYWGQGTQVTVSS | low polyreactivity |
| QVQLVESGGGLVQAGGRLRLSCAASGFTFSGYGMGWSRQAPGKERELVAAISNSGGRTYADSVKGRFTISRDTAQKTVYLQMNSLKPEDTAVYSCAKKPGGFSQASRVDYDYWGQGTQVTVSS | low polyreactivity |
| QVQLVESGGGLVQAGGSLRLSCAASGSTFGKYVMGWYRQAPGKERELVAAISRSGGSTYYADYVKGRFTISRDNAMNTVYLQMNSLKPEDTAVYYCNAVVYFVGDFDYWGQGTQVSVSS | high polyreactivity |
| QVQLVESGGGLVQAGGSLRFSCAASGTFYYYAMGWYRHAPGKERELVAAISYSGGRTYYADSVKGRFTISRDNAKNTVYLQMNSLKPEDTAVYYCNALYRKTPSYGADDYWGQGTQVTVSS | high polyreactivity |
| QVQLVESVGGLVQAGGSLRLSSAASGRIFVFNAMGWYRQAPGKERELVAAISRRGGSTYYADSVKGRFTISRDNAKNTVYLQMNSLNPEVTAVYYCAAVYPDYSSARYDYWGQGTQVTVSS | high polyreactivity |
| QVQLVESGGGLVQAGGSLRLSCAASGSTFVYNDMGWYRQAPGKERELVAVITSGGNTYYADSVKGRFTISRDNAKNTVYLQMNSLKPEDTAVYYCATRWYRFYPSDYWGQGTQVTVSS | low polyreactivity |
| QVQLVESGGGLVQAGGSLRLSCAASGRIFAPYAMGWYRQAPGQEREFVATITVSGARTRYADSVKGRFTISRDNAKNTVYLQMNSLKPEETAVYYCAASKFYSWRATRKVSYDYWGQGTQVTVSS | high polyreactivity |
| QVQLVESGGGLVQAGGSLRLSCAASGITFGRDAMGWYRQARGKERELVAAISRGSGSTYSADSVKGRFTISRDNAKNTVYLQMHSLKPEDTAVYYCGKVVRVGMGYWGQGTQVTVSS | high polyreactivity |
| QVQLVESGGGLVQAGGSLRLSCHASGRIIVPYVMGWYRQAPGKERELVASISDSDTSTYYADSVKGRFTMSRDNAKNTVYLQMNSLKPEDTAVYYCNVDFWGQGTQVTVSS | low polyreactivity |
| QVQLVESGGGLVQAGGSLRLSCAASGSTLVGNAMGWYRQAPGKEMELVAVISYRGGSTYYADSVKGRFTISRDNAKNTVYLQMNSLKPEDTAVYDCAARYYRNPVFVIMDYWGQGTQVTVSS | high polyreactivity |
| QVQLVESGGGLVQAGGSLRLSCAASGSIFPFYAMGWYRQAPGKERELVAAISDRGGSTYYADSVKGRFTISRDNAKNTVYLQMNSLKPEDTAVYYGAKGGEVSQGYTDEYDYWGQGTQVTVSS | low polyreactivity |
| QVKLVESGGGLVKAGGSIRLSCAASGFTFGVYAKGSYRQAPAKERELVAAISTTVGSTYYADSVKGRFTISRDNAKNTVYLQMNSLKPEVTAVYYCSAEYTGYINYYIYEYWGQGTQVTVSS | low polyreactivity |
